The values below come from patent US20040175379A1 (AbbVie / Abbott, published 2004).

First the molecules themselves.
B1: Ab198 (human anti-EPO-R antibody expressed by the cell line designated ABT2-SCX-198) (antibody, human IgG2, V domains shown)
VH: QVQLVESGGGVVQPGRSLRLSCVASGFTFSSYGMHWVRQAPGKGLEWVAVISYDGSNKYYADSVKGRFTISRDNSKNTLYLQMNSLRVEDTAVYYCARDHGGRYVYDYGMDVWGQGTTVTVSS
VL: DIQMTQSPSSVSASIGDRVSITCRASQGISSWLAWYQQKPGKAPTLLIYAASTLQRGVPSRFSGSGSGTDFTLTISSLQPEDFATYFCQQANSFPFTFGPGTKVDIK
B2: Ab12 (human anti-EPO-R antibody expressed by the cell line designated ABT2-SCX-012) (antibody, human IgG2, V domains shown)
VH: QVQLQESGPGLVKPSETLSLTCTVSGASISSYYWSWIRQPPGKGLEWIGYIYYSGSTNYNPSLKSRVTISVDTSKNQFSLKLRSVTAADTAVYYCARERLGIGDYWGQGTLVTVSS
VL: DIQLTQSPSSLSASVGDRVTITCRASQGIRNDLGWYQQKPGKAPKRLIYAASSLQSGVPSRFSGSGSGTEFTLTISSLQPEDFATYYCLQHNTYPPTFGQGTKVEIK
notes: also called AB-ABT2-XG2-012; ABT2-XG2-012
B3: human anti-EPO-R antibody expressed by the cell line designated ABT2-SCX-254 (antibody, human IgG2, V domains shown)
VH: QVQLVESGGGVVQPGRSLRLSCAASGFTFSSYGMHWVRQAPGKGLEWVAVIWFDGNNKFYADSVKGRFTISRDNSKNTLYLQMNSLRVEDTAVYYCARGGSYWDYWGQGTLVTVSS
VL: DIVMTQTPLFSFVMIGQPASISCRSRQSLVHSDGNTYLNWLQQRPGQPPRLLIYKTSNRFSGVPDRFSGSGAGTDFTLKISRVEAEDVGVYYCMQATQFPITFGQGTRLEIK
notes: also called Ab254
B4: human anti-EPO-R antibody expressed by the cell line designated ABT2-SCX-054 (antibody, V domains shown)
VH: B3 VH with S31K, I51L, F53Y, N56S, F59Y, V88A, G100P, S101Y, W103F
VL: not shown
notes: also called ABT2-SCX-54; Ab54
B5: human anti-EPO-R antibody expressed by the cell line designated ABT2-SCX-060 (antibody, human IgG2, V domains shown)
VH: B1 VH with V23A
VL: B1 VL with I15V, T53S
notes: also called Ab60
B6: human anti-EPO-R antibody expressed by the cell line designated ABT2-SCX-003 (antibody, human IgG2, V domains shown)
VH: B1 VH with V23A
VL: B1 VL with I15V, A34V, T45A, T53S
notes: also called Ab3
B7: human anti-EPO-R antibody expressed by the cell line designated ABT2-SCX-135 (antibody, human IgG2, V domains shown)
VH: B1 VH with V23A
VL: B1 VL with A13T, I15V, S30G, K42Q, T53S, S76N, I106V
notes: also called Ab135
B8: human anti-EPO-R antibody expressed by the cell line designated ABT2-SCX-145 (antibody, human IgG2, V domains shown)
VH: B1 VH with V23A
VL: B1 VL with I15V, S30G, K42Q, T53S, S76N, I106V
notes: also called Ab145
B9: human anti-EPO-R antibody expressed by the cell line designated ABT2-SCX-267 (antibody, human IgG2, V domains shown)
VH: B1 VH with V23A, R98K
VL: B1 VL with I15V, S30G, K42Q, T53S, S76N, I106V
notes: also called Ab267
B10: human anti-EPO-R antibody expressed by the cell line designated ABT2-SCX-102 (antibody, human IgG2, V domains shown)
VH: B1 VH with V23A
VL: B1 VL with I15V, T45K, L46R, T53S
notes: also called Ab102
B11: human anti-EPO-R antibody expressed by the cell line designated ABT2-SCX-022 (antibody, human IgG2, V domains shown)
VH: B1 VH with V23A, A49V
VL: B1 VL with I15V, T53S
notes: also called Ab22

Changes are numbered by the printed parent chain.

One assay has as its target T1, soluble human EPO receptor (human, UniProt P19235 25-250, limits assumed).
T1 construct: Only called 'soluble'
T1 sequence (looked up): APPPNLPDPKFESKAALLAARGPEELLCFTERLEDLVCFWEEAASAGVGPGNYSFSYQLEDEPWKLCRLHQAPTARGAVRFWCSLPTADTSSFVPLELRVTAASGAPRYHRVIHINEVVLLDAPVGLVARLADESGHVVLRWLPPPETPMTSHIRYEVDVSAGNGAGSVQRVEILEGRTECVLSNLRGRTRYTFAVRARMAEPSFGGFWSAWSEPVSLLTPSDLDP
Put plainly: SPR (Biacore 2000), antibody immobilised on the chip, soluble receptor 10-200 nM injected. The protocol:
Immobilizations of antibody were performed using the default immobilization program in the Biacore software package. Antibodies were diluted to 10 ug/mL in the supplied acetate buffers to prescreen for the appropriate pH at which to conduct the immobilizations. For immobilizations, antibodies were diluted into the appropriate acetate buffer (10 mM acetate pH 4.0) and coupled directly to the chip surface using standard EDC chemistry at three different protein levels (500, 1000, and 1500 RU). The fourth flow cell was mock coupled with EDC to cap the carboxyl groups and provide a background surface as a negative control.
Binding studies were performed by successive injections of varying concentrations of soluble human EPO receptor over the chip surface (500 RU immobilized protein). […]
Data were fit to the models available in the BiaEvaluation 3.0.2 software package (Biacore). […] Dissociation constants were calculated directly from fitting to the Langmuir binding model. For the bivalent analyte model, the dissociation constants were calculated indirectly using the calculated values for the kinetic dissociation and kinetic association constants, kd and kₐ.
Background: SPR reads the build-up and loss of mass on a sensor chip optically.
As a reminder, the Kd is the free concentration of one partner at which half of the binding sites on the other are occupied at equilibrium, for simple one-to-one binding. Higher therefore signals lower affinity. On to B1, for which binding was put at a Kd of 0.0139 µM.

Molecule B2 registered a dissociation constant Kd of 0.0175 µM.

For a further assay, the target named is T2, biotinylated EpoR (Abbott CHO cell derived ref.#RB69084:4) (UniProt P19235 25-250, limits assumed, biotinylated with biotin-NHS (sites not given)).
T2 construct: also called biotin EpoR; biotin-EpoR
T2 sequence (looked up): T1 sequence (looked up)
Put plainly: ELISA, biotin-EpoR on streptavidin plate, HEK 293 supernatant titrated 1:2. The protocol:
The ELISA for antigen specific antibody secretion was performed as follows. Control plates were coated with […] Goat anti-human IgG H+L O/N. For the binding plates, biotin-EpoR (0.7 mcg/mL) was coated onto streptavadin 96 well plates (Sigma, St Louis, Mo.) for one hour at room temperature. The plates were washed five times with dH₂O. Recombinant antibodies were titrated 1:2 for 7 wells from the undiluted minilipofection supernatant. The plates were washed five times with dH₂O. A goat anti-human IgG Fc-specific HRP-conjugated antibody was added at a final concentration of 1 ug/mL for 1 hour at RT for the secretion and the binding ELISA. The plates were washed five times with dH₂O. The plates were developed with the addition of TMB chromogenic substrate (KPL, Gaithersburg, Md.) for 30 minutes and the ELISA was stopped by the addition of 1 M phosphoric acid. Each ELISA plate was analyzed to determine the optical density of each well at 450 nm.
For orientation: ELISA stands for enzyme-linked immunosorbent assay.
Consider B3, for which the “Binding (dilution of the supernatant in ELISA)” value (“Binding” for short) is 8 1:n dilution of supernatant.

For the molecule B4, the “Binding” value was > 64 1:n dilution of supernatant.

Consider B5, for which the “Binding” value was > 64 1:n dilution of supernatant.

As to B1, the “Binding” value was > 64 1:n dilution of supernatant.

For B6, the “Binding” value was > 64 1:n dilution of supernatant.

Take B7: the “Binding” value was 4 1:n dilution of supernatant.

For B8, the “Binding” value is > 64 1:n dilution of supernatant.

Take B9: the “Binding” value is > 64 1:n dilution of supernatant.

As to B10, the “Binding” value is > 64 1:n dilution of supernatant.

As to B11, the “Binding” value was > 64 1:n dilution of supernatant.

For B2, the “Binding” value is > 64 1:n dilution of supernatant.
